Here are results for two molecules from patent US20230167174A1 (Novartis, published 2023).

Experiment [1] has as its target T1, human TREM2 on CHO-hDAP12-hTREM2 cells (human, UniProt Q9NZC2 19-230).
T1 sequence: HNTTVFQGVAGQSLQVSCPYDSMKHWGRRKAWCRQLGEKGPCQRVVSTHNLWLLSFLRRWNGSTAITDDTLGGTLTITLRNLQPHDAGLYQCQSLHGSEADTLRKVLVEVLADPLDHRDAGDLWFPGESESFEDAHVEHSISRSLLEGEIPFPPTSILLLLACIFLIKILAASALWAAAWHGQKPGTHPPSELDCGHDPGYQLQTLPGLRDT
Nature of the experiment: cell-based or functional assay.

Experiment [2] deals with T2, TREM2 (isoform 3) on transfected HEK293 cells (human).
T2 construct: also called BC032362
T2 chain: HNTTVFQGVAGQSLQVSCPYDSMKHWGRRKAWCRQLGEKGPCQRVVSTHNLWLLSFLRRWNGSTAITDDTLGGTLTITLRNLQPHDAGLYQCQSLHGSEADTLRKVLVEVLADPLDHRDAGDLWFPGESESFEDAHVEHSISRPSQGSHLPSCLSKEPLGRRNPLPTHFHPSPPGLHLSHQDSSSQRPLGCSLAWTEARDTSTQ
Nature of the experiment: plasma membrane protein cell array, HEK293. Here is the method: Human HEK293 cells were grown on glass slides and fixed. Test antibodies were added at 2 µg/ml. Slides were subsequently incubated with an AlexaFluor647 labelled anti-human IgG Fc detection antibody, followed by fluorescence imaging.

Experiment [3] concerns the target T3, cyTREM2 ECD (19-174)-APP-Avi (cynomolgus).
T3 construct: range 19-174
As to the kind of experiment: SPR, label free kinetics. On the technique in general: SPR reads the build-up and loss of mass on a sensor chip optically.

The target in experiment [4] is T4, hTREM2 IgSF-hTREM1 stalk-hFc (human, UniProt Q9NZC2 19-132; Q9NP99 135-205, limits assumed).
T4 construct: domain: IgSF;domain: stalk region; also called hTREM2 IgSF-T1 stalk-hFc-bio; hTREM2 IgSF-hTREM1 stalk-hFc-bio
T4 sequence (looked up): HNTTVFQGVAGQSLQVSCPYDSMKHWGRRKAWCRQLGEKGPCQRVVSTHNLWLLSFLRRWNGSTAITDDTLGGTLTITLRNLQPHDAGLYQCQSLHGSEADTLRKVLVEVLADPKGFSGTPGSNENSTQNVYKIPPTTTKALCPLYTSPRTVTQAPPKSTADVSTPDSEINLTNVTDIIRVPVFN
As to the kind of experiment: recombinant protein binding.

Experiment [5] deals with T3, cyTREM2 ECD (19-174)-APP-Avi. As to the kind of experiment: SET.
The target is the same in experiment [6]. As to the kind of experiment: SPR (Biacore).

B1: MOR044698 (antibody, V domains shown)
VH: QVQLVQSGAEVKKPGASVKVSCKASGYTFTGYHMSWVRQAPGQGLEWMGVINPVSGNTVYAQKFQGRVTMTRDTSISTAYMELSRLRSEDTAVYYCARIPSYTYAFDYWGQGTLVTVSS
VL: DIQMTQSPSSLSASVGDRVTITCRASQDISNYLAWYQQKPGKAPKLLIYRASSLQSGVPSRFSGSGSGTDFTLTISSLQPEDFATYYCFQYRHMPSQTFGQGTKVEIKR
notes: also called MOR44698; MOR44698A
With B1, in experiment [1], the “Internalization compared to parental after 6 h” value was determined as 1.5 fold. In addition, the binding result in experiment [2] was “binds”. Also, the Kd in experiment [3] and in experiment [5] was 39 pM in each case. Further, the S/BG in experiment [4] was over 20.

B2: MOR042596 (antibody, human IgG1, kappa, L234A L235A, V domains shown)
VH: B1 VH
VL: DIQMTQSPSSLSASVGDRVTITCRASQDISNYLAWYQQKPGKAPKLLIYRASSLQSGVPSRFSGSGSGTDFTLTISSLQPEDFATYYCQQHGHSPTTFGQGTKVEIKR
notes: full IgG; also called MOR42596
B2 registered a Kd in experiment [6] of 6600 pM.
